IntAct's records for PubMed 32296183

Assays:
dazp2_human DAZAP2 = dazp2_human DAZAP2 (UniProt Q15038)
pihd2_human PIH1D2 = pihd2_human PIH1D2 (UniProt Q8WWB5)
hspb8_human HSPB8 = hspb8_human HSPB8 (UniProt Q9UJY1)
ptn21_human PTPN21 = ptn21_human PTPN21 (UniProt Q16825)
prdm6_human PRDM6 = prdm6_human PRDM6 (UniProt Q9NQX0)
tri27_human TRIM27 = tri27_human TRIM27 (UniProt P14373)
leng8_human LENG8 = leng8_human LENG8 (UniProt Q96PV6)
magd1_human MAGED1 = magd1_human MAGED1 (UniProt Q9Y5V3)
vp37b_human VPS37B = vp37b_human VPS37B (UniProt Q9H9H4)
mdfi_human MDFI = mdfi_human MDFI (UniProt Q99750)
fx4l1_human FOXD4L1 = fx4l1_human FOXD4L1 (UniProt Q9NU39)
pa2gx_human PLA2G10 = pa2gx_human PLA2G10 (UniProt O15496)
prr34_human PRR34 = prr34_human PRR34 (UniProt Q9NV39)
ctds1_human CTDSP1 = ctds1_human CTDSP1 (UniProt Q9GZU7)
egr4_human EGR4 = egr4_human EGR4 (UniProt Q05215)
hspb7_human HSPB7 = hspb7_human HSPB7 (UniProt Q9UBY9)
arrd3_human ARRDC3 = arrd3_human ARRDC3 (UniProt Q96B67)
dtx3_human DTX3 = dtx3_human DTX3 (UniProt Q8N9I9)
noto_human NOTO = noto_human NOTO (UniProt A8MTQ0)
rm38_human MRPL38 = rm38_human MRPL38 (UniProt Q96DV4)
pdli7_human PDLIM7 = pdli7_human PDLIM7 (UniProt Q9NR12)
wbp2_human WBP2 = wbp2_human WBP2 (UniProt Q969T9)
trib3_human TRIB3 = trib3_human TRIB3 (UniProt Q96RU7)
cytm1_human CYSTM1 = cytm1_human CYSTM1 (UniProt Q9H1C7)
tm174_human TMEM174 = tm174_human TMEM174 (UniProt Q8WUU8)

NR1H3, Q13133-3, sequence (Q13133 46-447): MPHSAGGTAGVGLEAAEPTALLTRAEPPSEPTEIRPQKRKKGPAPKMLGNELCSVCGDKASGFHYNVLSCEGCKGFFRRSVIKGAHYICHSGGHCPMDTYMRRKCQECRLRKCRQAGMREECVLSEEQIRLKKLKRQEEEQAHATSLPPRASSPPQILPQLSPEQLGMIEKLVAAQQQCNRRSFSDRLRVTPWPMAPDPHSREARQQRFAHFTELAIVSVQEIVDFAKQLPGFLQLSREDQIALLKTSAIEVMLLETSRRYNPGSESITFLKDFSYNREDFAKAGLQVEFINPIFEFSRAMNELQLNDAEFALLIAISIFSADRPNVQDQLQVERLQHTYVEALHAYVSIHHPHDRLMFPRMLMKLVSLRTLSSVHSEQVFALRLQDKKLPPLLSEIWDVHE
EYA2, O00167-2, sequence (O00167 other isoform, or with tags, fused parts or gaps): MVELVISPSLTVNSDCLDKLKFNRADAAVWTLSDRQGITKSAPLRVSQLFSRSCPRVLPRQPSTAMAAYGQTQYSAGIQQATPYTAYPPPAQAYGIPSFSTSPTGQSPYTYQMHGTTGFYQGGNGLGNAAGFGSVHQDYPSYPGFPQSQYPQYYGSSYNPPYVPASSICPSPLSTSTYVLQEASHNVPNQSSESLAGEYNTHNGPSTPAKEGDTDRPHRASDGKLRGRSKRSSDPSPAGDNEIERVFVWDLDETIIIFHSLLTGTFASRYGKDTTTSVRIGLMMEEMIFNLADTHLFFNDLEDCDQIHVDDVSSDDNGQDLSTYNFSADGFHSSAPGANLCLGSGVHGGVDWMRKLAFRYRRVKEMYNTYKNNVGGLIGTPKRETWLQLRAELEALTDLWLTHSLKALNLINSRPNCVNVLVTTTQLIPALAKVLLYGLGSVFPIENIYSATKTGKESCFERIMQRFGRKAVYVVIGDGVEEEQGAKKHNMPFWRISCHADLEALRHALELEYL
dtx3_human DTX3, sequence (Q8N9I9 whole entry): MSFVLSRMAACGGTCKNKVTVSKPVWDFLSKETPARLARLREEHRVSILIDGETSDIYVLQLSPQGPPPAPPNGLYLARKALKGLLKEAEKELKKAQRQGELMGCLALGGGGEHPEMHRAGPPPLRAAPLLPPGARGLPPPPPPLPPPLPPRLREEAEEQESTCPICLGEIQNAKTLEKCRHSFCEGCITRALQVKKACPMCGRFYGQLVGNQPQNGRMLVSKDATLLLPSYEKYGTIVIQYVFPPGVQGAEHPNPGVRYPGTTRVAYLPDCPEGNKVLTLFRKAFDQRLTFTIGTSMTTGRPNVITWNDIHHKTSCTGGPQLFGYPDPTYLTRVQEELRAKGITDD
ctds1_human CTDSP1, sequence (Q9GZU7 whole entry): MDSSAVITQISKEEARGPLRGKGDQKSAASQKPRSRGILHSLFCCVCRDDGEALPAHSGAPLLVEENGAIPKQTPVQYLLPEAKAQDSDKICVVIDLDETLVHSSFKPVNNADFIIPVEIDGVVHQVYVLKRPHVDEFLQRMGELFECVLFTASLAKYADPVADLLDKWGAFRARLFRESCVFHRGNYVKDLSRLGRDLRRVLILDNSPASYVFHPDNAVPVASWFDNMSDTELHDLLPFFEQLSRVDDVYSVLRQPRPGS
egr4_human EGR4, sequence (Q05215 whole entry): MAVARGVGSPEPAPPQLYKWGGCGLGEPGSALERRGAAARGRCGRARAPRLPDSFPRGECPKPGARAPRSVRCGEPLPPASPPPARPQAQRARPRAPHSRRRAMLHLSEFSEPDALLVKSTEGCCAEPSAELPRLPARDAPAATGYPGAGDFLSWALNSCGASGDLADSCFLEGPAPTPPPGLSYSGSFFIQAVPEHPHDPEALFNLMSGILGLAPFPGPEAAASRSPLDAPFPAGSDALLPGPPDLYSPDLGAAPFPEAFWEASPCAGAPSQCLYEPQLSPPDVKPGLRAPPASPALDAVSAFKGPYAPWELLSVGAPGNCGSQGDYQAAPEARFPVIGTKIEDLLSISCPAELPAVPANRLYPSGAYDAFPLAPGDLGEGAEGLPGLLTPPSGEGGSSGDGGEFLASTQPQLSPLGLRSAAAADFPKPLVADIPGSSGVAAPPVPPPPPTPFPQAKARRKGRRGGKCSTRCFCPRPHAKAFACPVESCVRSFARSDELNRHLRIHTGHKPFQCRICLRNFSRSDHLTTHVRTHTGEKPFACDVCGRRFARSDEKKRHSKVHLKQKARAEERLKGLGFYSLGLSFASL
arrd3_human ARRDC3, sequence (Q96B67 whole entry): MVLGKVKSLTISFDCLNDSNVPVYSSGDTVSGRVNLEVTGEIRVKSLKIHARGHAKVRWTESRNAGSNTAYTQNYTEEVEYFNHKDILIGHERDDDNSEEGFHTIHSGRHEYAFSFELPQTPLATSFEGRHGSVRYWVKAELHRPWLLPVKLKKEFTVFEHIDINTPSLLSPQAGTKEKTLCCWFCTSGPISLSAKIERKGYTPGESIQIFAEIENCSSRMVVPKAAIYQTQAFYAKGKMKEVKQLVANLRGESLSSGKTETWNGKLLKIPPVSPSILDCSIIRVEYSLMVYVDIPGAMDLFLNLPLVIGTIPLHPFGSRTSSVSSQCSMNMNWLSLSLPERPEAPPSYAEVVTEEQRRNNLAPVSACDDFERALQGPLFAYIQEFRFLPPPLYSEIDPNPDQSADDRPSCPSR
mdfi_human MDFI, sequence (Q99750 whole entry): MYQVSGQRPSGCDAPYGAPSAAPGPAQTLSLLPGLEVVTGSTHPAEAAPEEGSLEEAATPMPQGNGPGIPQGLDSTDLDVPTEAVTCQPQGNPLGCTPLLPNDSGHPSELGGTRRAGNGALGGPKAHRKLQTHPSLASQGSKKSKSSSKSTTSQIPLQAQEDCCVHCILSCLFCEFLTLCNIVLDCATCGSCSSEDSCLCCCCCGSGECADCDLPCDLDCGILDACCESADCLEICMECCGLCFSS
hspb7_human HSPB7, sequence (Q9UBY9 whole entry): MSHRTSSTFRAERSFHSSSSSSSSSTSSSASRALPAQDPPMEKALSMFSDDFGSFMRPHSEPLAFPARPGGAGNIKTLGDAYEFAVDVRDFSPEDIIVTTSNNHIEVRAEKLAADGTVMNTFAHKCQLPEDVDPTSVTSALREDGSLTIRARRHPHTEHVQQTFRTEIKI
wbp2_human WBP2, sequence (Q969T9 whole entry): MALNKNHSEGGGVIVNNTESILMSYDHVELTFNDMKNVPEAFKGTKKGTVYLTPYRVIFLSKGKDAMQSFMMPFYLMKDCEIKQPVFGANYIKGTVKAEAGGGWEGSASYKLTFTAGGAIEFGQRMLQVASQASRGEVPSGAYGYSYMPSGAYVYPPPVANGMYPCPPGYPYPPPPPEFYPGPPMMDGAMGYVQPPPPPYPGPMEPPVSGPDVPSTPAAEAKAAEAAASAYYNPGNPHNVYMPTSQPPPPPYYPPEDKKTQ
pdli7_human PDLIM7, sequence (Q9NR12 whole entry): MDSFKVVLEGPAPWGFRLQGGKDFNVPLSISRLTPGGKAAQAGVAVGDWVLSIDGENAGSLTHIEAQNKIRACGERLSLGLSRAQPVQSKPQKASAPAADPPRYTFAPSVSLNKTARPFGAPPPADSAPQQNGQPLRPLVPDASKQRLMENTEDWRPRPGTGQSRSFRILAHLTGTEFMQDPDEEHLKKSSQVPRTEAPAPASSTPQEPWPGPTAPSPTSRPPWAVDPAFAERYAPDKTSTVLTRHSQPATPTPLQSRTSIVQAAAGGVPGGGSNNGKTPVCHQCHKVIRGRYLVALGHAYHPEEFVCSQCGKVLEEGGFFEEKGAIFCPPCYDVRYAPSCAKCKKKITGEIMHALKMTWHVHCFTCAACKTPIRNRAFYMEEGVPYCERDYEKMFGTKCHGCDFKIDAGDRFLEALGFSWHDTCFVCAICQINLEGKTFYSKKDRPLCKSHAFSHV
hspb8_human HSPB8, sequence (Q9UJY1 whole entry): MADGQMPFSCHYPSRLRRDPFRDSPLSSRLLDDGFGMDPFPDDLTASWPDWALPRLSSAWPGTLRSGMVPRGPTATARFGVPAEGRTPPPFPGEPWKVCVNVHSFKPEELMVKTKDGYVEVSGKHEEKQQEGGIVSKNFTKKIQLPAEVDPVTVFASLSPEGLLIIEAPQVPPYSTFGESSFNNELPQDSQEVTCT
trib3_human TRIB3, sequence (Q96RU7 whole entry): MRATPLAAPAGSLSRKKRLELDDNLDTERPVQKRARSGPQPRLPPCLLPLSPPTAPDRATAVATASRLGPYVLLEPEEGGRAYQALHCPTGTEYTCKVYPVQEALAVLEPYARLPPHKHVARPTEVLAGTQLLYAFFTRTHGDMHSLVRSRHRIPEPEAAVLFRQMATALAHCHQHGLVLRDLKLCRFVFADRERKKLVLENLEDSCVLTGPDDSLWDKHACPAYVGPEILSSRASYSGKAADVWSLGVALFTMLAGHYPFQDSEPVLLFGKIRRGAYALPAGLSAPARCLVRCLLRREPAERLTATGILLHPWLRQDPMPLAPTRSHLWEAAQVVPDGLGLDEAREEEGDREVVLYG
SIAH1, Q8IUQ4-2, sequence (Q8IUQ4 other isoform, or with tags, fused parts or gaps): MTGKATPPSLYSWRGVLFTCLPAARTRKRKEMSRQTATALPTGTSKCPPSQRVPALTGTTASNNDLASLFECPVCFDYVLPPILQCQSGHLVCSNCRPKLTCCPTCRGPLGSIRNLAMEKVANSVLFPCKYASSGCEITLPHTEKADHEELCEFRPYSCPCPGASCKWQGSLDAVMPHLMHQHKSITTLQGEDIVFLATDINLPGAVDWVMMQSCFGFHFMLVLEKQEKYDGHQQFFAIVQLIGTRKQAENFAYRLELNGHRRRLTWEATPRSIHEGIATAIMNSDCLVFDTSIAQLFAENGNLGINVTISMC
noto_human NOTO, sequence (A8MTQ0 whole entry): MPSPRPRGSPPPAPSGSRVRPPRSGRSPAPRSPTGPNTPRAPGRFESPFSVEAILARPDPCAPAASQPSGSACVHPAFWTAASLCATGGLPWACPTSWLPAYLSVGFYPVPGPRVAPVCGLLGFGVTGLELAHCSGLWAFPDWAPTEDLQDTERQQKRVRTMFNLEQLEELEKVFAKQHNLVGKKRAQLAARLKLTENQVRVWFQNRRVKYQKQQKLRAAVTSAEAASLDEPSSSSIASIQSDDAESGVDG

| Substance | effect of a mutation on the interaction (dazp2_human DAZAP2) | effect of a mutation on the interaction (pihd2_human PIH1D2) | effect of a mutation on the interaction (hspb8_human HSPB8) | effect of a mutation on the interaction (ptn21_human PTPN21) | effect of a mutation on the interaction (tri27_human TRIM27) | effect of a mutation on the interaction (leng8_human LENG8) | effect of a mutation on the interaction (magd1_human MAGED1) | effect of a mutation on the interaction (vp37b_human VPS37B) | effect of a mutation on the interaction (mdfi_human MDFI) | effect of a mutation on the interaction (fx4l1_human FOXD4L1) | effect of a mutation on the interaction (pa2gx_human PLA2G10) | effect of a mutation on the interaction (prr34_human PRR34) | effect of a mutation on the interaction (ctds1_human CTDSP1) | effect of a mutation on the interaction (egr4_human EGR4) | effect of a mutation on the interaction (SIAH1, Q8IUQ4-2) | effect of a mutation on the interaction (EYA2, O00167-2) | effect of a mutation on the interaction (hspb7_human HSPB7) | effect of a mutation on the interaction (arrd3_human ARRDC3) | effect of a mutation on the interaction (dtx3_human DTX3) | effect of a mutation on the interaction (noto_human NOTO) | other results |
| --- | --- | --- | --- | --- | --- | --- | --- | --- | --- | --- | --- | --- | --- | --- | --- | --- | --- | --- | --- | --- | --- |
| BAG family molecular chaperone regulator 3 (Homo sapiens), O95817 L462P | with no effect | with no effect | with no effect | with no effect | with no effect | disrupting interaction strength | with no effect | with no effect | with no effect | with no effect | with no effect | with no effect | disrupting interaction strength | with no effect | disrupting interaction strength | with no effect | with no effect | with no effect | with no effect | with no effect | effect of a mutation on the interaction (RUNX1, Q01196-8): with no effect; effect of a mutation on the interaction (prdm6_human PRDM6): with no effect; effect of a mutation on the interaction (NR1H3, Q13133-3): with no effect; effect of a mutation on the interaction (rm38_human MRPL38): disrupting interaction strength; effect of a mutation on the interaction (pdli7_human PDLIM7): with no effect; effect of a mutation on the interaction (wbp2_human WBP2): with no effect; effect of a mutation on the interaction (trib3_human TRIB3): disrupting interaction strength; effect of a mutation on the interaction (cytm1_human CYSTM1): with no effect; effect of a mutation on the interaction (GLIS3, Q8NEA6-2): with no effect; effect of a mutation on the interaction (tm174_human TMEM174): disrupting interaction strength |
| BAG family molecular chaperone regulator 3 (Homo sapiens), O95817 R218W | with no effect | with no effect | with no effect | with no effect | with no effect | with no effect | with no effect | with no effect | with no effect | with no effect | with no effect | with no effect | with no effect | with no effect | with no effect | with no effect | with no effect | with no effect | with no effect | with no effect | effect of a mutation on the interaction (NR1H3, Q13133-3): with no effect; effect of a mutation on the interaction (pdli7_human PDLIM7): with no effect; effect of a mutation on the interaction (wbp2_human WBP2): with no effect; effect of a mutation on the interaction (trib3_human TRIB3): with no effect; effect of a mutation on the interaction (cytm1_human CYSTM1): with no effect; effect of a mutation on the interaction (GLIS3, Q8NEA6-2): with no effect; effect of a mutation on the interaction (tm174_human TMEM174): with no effect |
| BAG family molecular chaperone regulator 3 (Homo sapiens), O95817 R258W | with no effect | with no effect | with no effect | with no effect | with no effect | with no effect | with no effect | with no effect | with no effect | with no effect | with no effect | with no effect | with no effect | with no effect | with no effect | with no effect | with no effect | with no effect | with no effect | with no effect | effect of a mutation on the interaction (RUNX1, Q01196-8): with no effect; effect of a mutation on the interaction (prdm6_human PRDM6): with no effect; effect of a mutation on the interaction (NR1H3, Q13133-3): with no effect; effect of a mutation on the interaction (rm38_human MRPL38): disrupting interaction strength; effect of a mutation on the interaction (pdli7_human PDLIM7): with no effect; effect of a mutation on the interaction (wbp2_human WBP2): with no effect; effect of a mutation on the interaction (trib3_human TRIB3): with no effect; effect of a mutation on the interaction (GLIS3, Q8NEA6-2): with no effect; effect of a mutation on the interaction (tm174_human TMEM174): with no effect |
